According to US20210322524A1 (CASE WESTERN RESERVE UNIVERSITY, published 2021):
Where a chain is given by its changes, count along the chain named. Names and notes keep the numbering of the source. Where no end group is shown, it is not given here.

B1: ATAD3A (endogenous, human cells and tissue) (other, UniProt Q9NVI7 2-586, looked up)
chain: SWLFGINKGPKGEGAGPPPPLPPAQPGAEGGGDRGLGDRPAPKDKWSNFDPTGLERAAKAARELEHSRYAKDALNLAQMQEQTLQLEQQSKLKEYEAAVEQLKSEQIRAQAEERRKTLSEETRQHQARAQYQDKLARQRYEDQLKQQQLLNEENLRKQEESVQKQEAMRRATVEREMELRHKNEMLRVEAEARARAKAERENADIIREQIRLKAAEHRQTVLESIRTAGTLFGEGFRAFVTDWDKVTATVAGLTLLAVGVYSAKNATLVAGRFIEARLGKPSLVRETSRITVLEALRHPIQVSRRLLSRPQDALEGVVLSPSLEARVRDIAIATRNTKKNRSLYRNILMYGPPGTGKTLFAKKLALHSGMDYAIMTGGDVAPMGREGVTAMHKLFDWANTSRRGLLLFVDEADAFLRKRATEKISEDLRATLNAFLYRTGQHSNKFMLVLASNQPEQFDWAINDRINEMVHFDLPGQEERERLVRMYFDKYVLKPATEGKQRLKLAQFDYGRKCSEVARLTEGMSGREIAQLAVSWQATAYASEDGVLTEAMMDTRVQDAVQQHQQKMCWLKAEGPGRGDEPSPS
notes: Endogenous protein in lysates
B2: Myc-tagged ATAD3A (other, human, UniProt Q9NVI7 1-586, looked up)
chain: MSWLFGINKGPKGEGAGPPPPLPPAQPGAEGGGDRGLGDRPAPKDKWSNFDPTGLERAAKAARELEHSRYAKDALNLAQMQEQTLQLEQQSKLKEYEAAVEQLKSEQIRAQAEERRKTLSEETRQHQARAQYQDKLARQRYEDQLKQQQLLNEENLRKQEESVQKQEAMRRATVEREMELRHKNEMLRVEAEARARAKAERENADIIREQIRLKAAEHRQTVLESIRTAGTLFGEGFRAFVTDWDKVTATVAGLTLLAVGVYSAKNATLVAGRFIEARLGKPSLVRETSRITVLEALRHPIQVSRRLLSRPQDALEGVVLSPSLEARVRDIAIATRNTKKNRSLYRNILMYGPPGTGKTLFAKKLALHSGMDYAIMTGGDVAPMGREGVTAMHKLFDWANTSRRGLLLFVDEADAFLRKRATEKISEDLRATLNAFLYRTGQHSNKFMLVLASNQPEQFDWAINDRINEMVHFDLPGQEERERLVRMYFDKYVLKPATEGKQRLKLAQFDYGRKCSEVARLTEGMSGREIAQLAVSWQATAYASEDGVLTEAMMDTRVQDAVQQHQQKMCWLKAEGPGRGDEPSPS
notes: also called Myc-ATAD3A; ATAD3A-WT (heterodimer partner); not shown: Myc tag (pCMV-Myc vector)
B3: ATAD3A-Flag protein (human ATAD3A wildtype, Flag-tagged) (other, UniProt Q9NVI7 1-586, looked up)
chain: B2 chain
notes: Made cell-free (TNT system) from pcDNA3.1(+)-ATAD3A-Flag for the in vitro assays, or expressed in HEK293 cells; the same construct is used for both here; also called ATAD3A WT; flag-tagged ATAD3A; not shown: Flag tag
B4: ATAD3A K135Q (Flag-tagged) (other, human, UniProt Q9NVI7 1-586, looked up)
chain: B2 chain with K135Q
notes: Expressed in HEK293 cells; also called K135Q mutant; acetyl-mimetic ATAD3A K135Q mutant; not shown: Flag tag
B5: ATAD3A K135E (Flag-tagged) (other, human, UniProt Q9NVI7 1-586, looked up)
chain: B2 chain with K135E
notes: Expressed in HEK293 cells; also called K135E mutant; acetyl-deficient mutant K135E; not shown: Flag tag
B6: ATAD3A K135R (Flag-tagged) (other, human, UniProt Q9NVI7 1-586, looked up)
chain: B2 chain with K135R
notes: Expressed in HEK293 cells; also called K135R mutant; acetyl-deficient mutant K135R; not shown: Flag tag
B7: ATAD3A (endogenous, mouse cells and mouse striatum) (other, UniProt Q925I1 2-591, looked up)
chain: SWLFGIKGPKGEGTGPPLPLPPAQPGAEGGGDRGAGDRPSPKDKWSNFDPTGLERAAKAARELEHSRHAKEALSLAQMQEQTLQLEQQSKLKEYEAAVEQLKSEQIRVQAEERRKTLTEETRQHQARAQYQDKLARQRYEDQLKQQQLLNEENLRKQEESVQKQEAIRRATVEREMELRHKNEMLRVEAEARARAKADRENADIIREQIRLKAAEHRQTILESIRTAGTLLGEGFRAFVTDWDKVTATVAGLTLLAVGVYSAKNATSVAGRYIEARLGKPSLVRETSRISVLEALRHPIQVSRRLVSRPQDALEGVILSPSLEARVRDIAIATRNTKKNKSLYRNVLMYGPPGTGKTLFAKKLALHSGMDYAIMTGGDVAPMGREGVTAMHKVFDWASTSRRGLLLFVDEADAFLRKRATEKISEDLRATLNAFLHRTGQHSSKFMLVLASNQPEQFDWAINDRIDEMVCFALPQREERERLVRMYFDKYVLKPATEGKQRLKVAQFDYGKKCSEVAQLTEGMSGREIAQLAVAWQAMAYSSEDGVLTEAMMDARVQDAVQQHQQKMQWLKVERPDSQTNKPPHPSLLSC
notes: Endogenous protein in lysates; also called endogenous ATAD3A

Assays:
[1] = target: the molecule itself; test: self-association; western blot under non-reducing conditions
[2] = target: T1, Drp1 (endogenous, human cells and tissue) (human, UniProt O00429 1-736, limits assumed); test: anti-Drp1 affinity purification and tandem mass spectrometry, neurons from HD patient iPS cells
T1 construct: Endogenous protein in lysates; also called Dynamin-related protein 1

[3] = target: B3; test: co-IP
[4] = target: the molecule itself; test: self-association; western blot with or without β-ME, HEK293 cells
[5] = target: T1, Drp1 (endogenous, human cells and …); test: IP of total lysates of transfected HEK293 cells
Myc-tagged ATAD3A = target: B2; test: anti-Flag IP, anti-Myc western blot
[6] = target: B7; test: biotin-DA1 (10 µM) with total lysates of HD striatal cells, streptavidin beads, western blot
[7] = target: T2, VDAC (OMM protein, endogenous in HD striatal cells) (mouse, UniProt Q3U6K8 2-283); test: biotin-DA1 with total lysates of HD striatal cells, streptavidin beads, western blot
T2 construct: also called voltage-dependent anion channel

[8] = target: ClpP (mitochondrial matrix protein, endogenous in HD striatal cells) (mouse, UniProt O88696 53-272); test: as above
[9] = target: T3, Drp1 (endogenous, mouse striatal cells and mouse striatum) (mouse, UniProt Q8K1M6 1-736, limits assumed); test: as above
T3 construct: Endogenous protein in lysates; also called Dynamin-related protein 1

[10] = target: B3; test: biotin-DA1 (10 µM) with purified protein, streptavidin beads, western blot
[11] = target: T4, GST-Drp1 recombinant protein (UniProt O00429-3 1-710, limits assumed); test: biotin-DA1 with purified protein, streptavidin beads, western blot
T4 construct: Bought (Abnova); also called Dynamin-related protein 1; not shown: GST tag
T4 sequence (O00429 other isoform, or with tags, fused parts or gaps limits assumed): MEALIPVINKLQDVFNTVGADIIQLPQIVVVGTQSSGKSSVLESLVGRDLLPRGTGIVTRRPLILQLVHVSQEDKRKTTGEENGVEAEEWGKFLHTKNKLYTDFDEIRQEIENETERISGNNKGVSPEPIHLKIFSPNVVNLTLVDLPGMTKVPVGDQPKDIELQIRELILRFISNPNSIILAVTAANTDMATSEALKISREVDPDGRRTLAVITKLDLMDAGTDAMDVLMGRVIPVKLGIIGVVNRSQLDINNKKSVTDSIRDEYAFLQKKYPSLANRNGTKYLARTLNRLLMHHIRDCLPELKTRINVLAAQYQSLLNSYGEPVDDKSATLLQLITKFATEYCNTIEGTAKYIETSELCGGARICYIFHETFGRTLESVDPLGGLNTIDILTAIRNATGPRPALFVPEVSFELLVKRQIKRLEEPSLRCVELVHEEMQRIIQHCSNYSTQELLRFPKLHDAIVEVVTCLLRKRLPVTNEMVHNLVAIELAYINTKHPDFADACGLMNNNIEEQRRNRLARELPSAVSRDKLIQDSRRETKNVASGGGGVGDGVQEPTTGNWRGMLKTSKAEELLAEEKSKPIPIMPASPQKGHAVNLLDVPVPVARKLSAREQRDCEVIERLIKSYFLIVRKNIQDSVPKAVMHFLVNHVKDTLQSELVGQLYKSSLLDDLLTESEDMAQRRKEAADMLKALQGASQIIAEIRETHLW

T1 sequence (O00429 whole entry): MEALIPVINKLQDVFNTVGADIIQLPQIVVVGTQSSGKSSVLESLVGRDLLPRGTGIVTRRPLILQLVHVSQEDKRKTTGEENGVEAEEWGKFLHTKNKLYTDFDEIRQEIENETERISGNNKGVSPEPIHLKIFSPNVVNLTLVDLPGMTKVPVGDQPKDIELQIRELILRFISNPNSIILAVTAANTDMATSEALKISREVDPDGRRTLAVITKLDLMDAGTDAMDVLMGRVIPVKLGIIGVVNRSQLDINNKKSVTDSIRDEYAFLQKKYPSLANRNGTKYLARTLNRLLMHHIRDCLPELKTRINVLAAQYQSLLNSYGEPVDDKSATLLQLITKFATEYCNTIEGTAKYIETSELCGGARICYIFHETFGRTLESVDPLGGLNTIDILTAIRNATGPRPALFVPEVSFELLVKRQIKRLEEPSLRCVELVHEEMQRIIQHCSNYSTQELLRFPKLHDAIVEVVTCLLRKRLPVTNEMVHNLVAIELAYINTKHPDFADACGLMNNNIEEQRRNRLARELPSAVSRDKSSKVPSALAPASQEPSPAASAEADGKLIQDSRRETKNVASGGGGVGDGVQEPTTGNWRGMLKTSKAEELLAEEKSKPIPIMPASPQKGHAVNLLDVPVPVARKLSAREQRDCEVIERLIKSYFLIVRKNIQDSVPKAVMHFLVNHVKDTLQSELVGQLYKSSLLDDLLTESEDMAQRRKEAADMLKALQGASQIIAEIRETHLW
T3 sequence (Q8K1M6 whole entry): as the sequence (O00429 whole entry) above, with I57V, Q72P, I134V, V528G, S548P, S563N, A571P, G573A, V577I, V581G counted along it
ClpP (mitochondrial matrix protein, endogenous in HD striatal cells), sequence (O88696 53-272 limits assumed): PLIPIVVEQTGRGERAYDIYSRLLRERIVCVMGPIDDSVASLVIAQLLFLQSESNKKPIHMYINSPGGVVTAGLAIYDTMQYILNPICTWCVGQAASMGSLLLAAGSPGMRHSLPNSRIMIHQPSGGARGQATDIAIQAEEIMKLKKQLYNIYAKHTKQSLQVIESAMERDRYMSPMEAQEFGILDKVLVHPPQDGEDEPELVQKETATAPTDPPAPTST

B1: binds [1]; binds [2].

B2: binds [3].

B3: binds [4].

B4: no binding [5]; binds [4]; binds (Myc-tagged ATAD3A).

B5: binds [5]; binds [4]; binds (Myc-tagged ATAD3A).

B6: binds [5]; binds [4].

YGRKKRRQRRRGGEDKRKT (also: biotin, position not given here, also called biotin-DA1) [Biotin-conjugated DA1]: binds [6]; no binding (tested: 10 µM) [7]; no binding (tested: 10 µM) [8]. YGRKKRRQRRRGGEDKRKT (also: biotin, position not given here, also called biotin-DA1) [Biotin-conjugated DA1]: no binding (tested: 10 µM) [9]; binds [10]; no binding (tested: 10 µM) [11].

B7: binds [1].
